B1: ZNF8 (parent)
chain: SLGRHKRTHTGEKPYTCSVCGKSF

Variants of: B1
Experiment: protein stability index of a GFP-peptide fusion (GPS, HEK-293T) (PSI 1-6); higher = more stable
Settings: c terminus: a fixed tail appended
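Note: lentivirally expressed fusions sorted by FACS into six bins by GFP to DsRed ratio, PSI derived from sequencing read proportions per bin multiplied by bin number.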

Variant	protein stability index
SLGRHKRTHTGPKPYTCSVCGKSF [E12P]	3.28
SLGRHKRTHTGQKPYTCSVCGKSF [E12Q]	2.77
SLGRHKRTHTGMKPYTCSVCGKSF [E12M]	2.41
SLGRHKRTHTGAKPYTCSVCGKSF [E12A]	2.7
SLGRHKRTHTGNKPYTCSVCGKSF [E12N]	3.1
SLGRHKRTHTGGKPYTCSVCGKSF [E12G]	2.79
SLGRHKRTHTGFKPYTCSVCGKSF [E12F]	1.74
SLGRHKRTHTGEGPYTCSVCGKSF [K13G]	2.61
SLGRHKRTHTGENPYTCSVCGKSF [K13N]	2.48
SLGRHKRTHTGELPYTCSVCGKSF [K13L]	1.99
SLGRHKRTHTGEMPYTCSVCGKSF [K13M]	2.4
SLGRHKRTHTGEEPYTCSVCGKSF [K13E]	2.39
SLGRHKRTHTGECPYTCSVCGKSF [K13C]	2.88
SLGRHKRTHTGEAPYTCSVCGKSF [K13A]	3.72
SLGRHKRTHTGEIPYTCSVCGKSF [K13I]	2.65
SLGRHKRTHTGEFPYTCSVCGKSF [K13F]	2.2
SLGRHKRTHTGEHPYTCSVCGKSF [K13H]	2.96
SLGRHKRTHTGEDPYTCSVCGKSF [K13D]	2.34
SLGRHKRTHTVEKPYTCSVCGKSF [G11V]	1.98
SLGRHKRTHTHEKPYTCSVCGKSF [G11H]	3.29
SLGRHKRTHTYEKPYTCSVCGKSF [G11Y]	2.94
SLGRHKRTHTWEKPYTCSVCGKSF [G11W]	3.56
SLGRHKRTHTCEKPYTCSVCGKSF [G11C]	2.77
SLGRHKRTHTEEKPYTCSVCGKSF [G11E]	2.51

Variant	protein stability index
SLGRHKRTHTFEKPYTCSVCGKSF [G11F]	2.4
SLGRHKRTHTKEKPYTCSVCGKSF [G11K]	2.9
SLGRHKRTHTPEKPYTCSVCGKSF [G11P]	2.73
SLGRHKRTHTIEKPYTCSVCGKSF [G11I]	2.07
SLGRHKRTHTREKPYTCSVCGKSF [G11R]	2.53
SLGRHKRTHTMEKPYTCSVCGKSF [G11M]	2.41
SLGRHKRTHTLEKPYTCSVCGKSF [G11L]	2.42
SLGRHKRTHTAEKPYTCSVCGKSF [G11A]	2.17
SLGRHKRTHTTEKPYTCSVCGKSF [G11T]	3.09
SLGRHKRTHTNEKPYTCSVCGKSF [G11N]	2.3
SLGRHKRTHTDEKPYTCSVCGKSF [G11D]	3.24
SLGRHKRTHTSEKPYTCSVCGKSF [G11S]	2.79
SLGRHKRTHTQEKPYTCSVCGKSF [G11Q]	2.53
SLGRHKRQHTGEKPYTCSVCGKSF [T8Q]	3.17
SLGRHKRIHTGEKPYTCSVCGKSF [T8I]	1.91
SLGRHKRPHTGEKPYTCSVCGKSF [T8P]	2.64
SLGRHKRFHTGEKPYTCSVCGKSF [T8F]	2.6
SLGRHKRAHTGEKPYTCSVCGKSF [T8A]	3.09
SLGRHKRKHTGEKPYTCSVCGKSF [T8K]	3.17
SLGRHKRSHTGEKPYTCSVCGKSF [T8S]	3.02
SLGRHKRCHTGEKPYTCSVCGKSF [T8C]	2.45
SLGRHKRHHTGEKPYTCSVCGKSF [T8H]	3.05
SLGRHKRMHTGEKPYTCSVCGKSF [T8M]	1.9
SLGRHKRLHTGEKPYTCSVCGKSF [T8L]	2.61

Variant	protein stability index
SLGRHKRNHTGEKPYTCSVCGKSF [T8N]	2.44
SLGRHKREHTGEKPYTCSVCGKSF [T8E]	2.97
SLGRHKRDHTGEKPYTCSVCGKSF [T8D]	3.45
SLGRHKRWHTGEKPYTCSVCGKSF [T8W]	2.2
SLGRHKRRHTGEKPYTCSVCGKSF [T8R]	2.83
SLGRHKRYHTGEKPYTCSVCGKSF [T8Y]	2.65
SLGRHKRGHTGEKPYTCSVCGKSF [T8G]	2.68
SLGRHKRVHTGEKPYTCSVCGKSF [T8V]	2.68
SLGRHKRTATGEKPYTCSVCGKSF [H9A]	2.82
SLGRHKRTPTGEKPYTCSVCGKSF [H9P]	2.96
SLGRHKRTRTGEKPYTCSVCGKSF [H9R]	2.94
SLGRHKRTETGEKPYTCSVCGKSF [H9E]	3.06
SLGRHKRTDTGEKPYTCSVCGKSF [H9D]	2.79
SLGRHKRTSTGEKPYTCSVCGKSF [H9S]	2.66
SLGRHKRTGTGEKPYTCSVCGKSF [H9G]	2.16
SLGRHKRTTTGEKPYTCSVCGKSF [H9T]	2.78
SLGRHKRTVTGEKPYTCSVCGKSF [H9V]	2.47
SLGRHKRTITGEKPYTCSVCGKSF [H9I]	2.84
SLGRHKRTCTGEKPYTCSVCGKSF [H9C]	2.59
SLGRHKRTMTGEKPYTCSVCGKSF [H9M]	2.59
SLGRHKRTLTGEKPYTCSVCGKSF [H9L]	2.18
SLGRHKRTYTGEKPYTCSVCGKSF [H9Y]	3.15
SLGRHKRTNTGEKPYTCSVCGKSF [H9N]	2.67
SLGRHKRTKTGEKPYTCSVCGKSF [H9K]	3.13

Variant	protein stability index
SLGRHKRTQTGEKPYTCSVCGKSF [H9Q]	3.98
SLGRHKRTFTGEKPYTCSVCGKSF [H9F]	2.09
SLGRHKRTWTGEKPYTCSVCGKSF [H9W]	2.83
SLGRHKRTHDGEKPYTCSVCGKSF [T10D]	3.47
SLGRHKRTHEGEKPYTCSVCGKSF [T10E]	2.86
SLGRHKRTHNGEKPYTCSVCGKSF [T10N]	3.44
SLGRHKRTHAGEKPYTCSVCGKSF [T10A]	2.84
SLGRHKRTHYGEKPYTCSVCGKSF [T10Y]	2.18
SLGRHKRTHKGEKPYTCSVCGKSF [T10K]	2.84
SLGRHKRTHSGEKPYTCSVCGKSF [T10S]	3.28
SLGRHKRTHFGEKPYTCSVCGKSF [T10F]	1.88
SLGRHKRTHQGEKPYTCSVCGKSF [T10Q]	3.12
SLGRHKRTHPGEKPYTCSVCGKSF [T10P]	2.56
SLGRHKRTHRGEKPYTCSVCGKSF [T10R]	2.32
SLGRHKRTHGGEKPYTCSVCGKSF [T10G]	3.3
SLGRHKRTHLGEKPYTCSVCGKSF [T10L]	2.19
SLGRHKRTHWGEKPYTCSVCGKSF [T10W]	2.33
SLGRHKRTHIGEKPYTCSVCGKSF [T10I]	2.77
SLGRHKRTHVGEKPYTCSVCGKSF [T10V]	2.09
SLGRHKRTHHGEKPYTCSVCGKSF [T10H]	2.98
SLGRHKRTHMGEKPYTCSVCGKSF [T10M]	2.74
SLGRHKRTHCGEKPYTCSVCGKSF [T10C]	2.08

— the supplement of paper PMC10567573
